The labels stand for the following.
T1: FGF-8 (manufactured by R & D) (Homo sapiens (Human), UniProt P55075 23-215)
T1 sequence: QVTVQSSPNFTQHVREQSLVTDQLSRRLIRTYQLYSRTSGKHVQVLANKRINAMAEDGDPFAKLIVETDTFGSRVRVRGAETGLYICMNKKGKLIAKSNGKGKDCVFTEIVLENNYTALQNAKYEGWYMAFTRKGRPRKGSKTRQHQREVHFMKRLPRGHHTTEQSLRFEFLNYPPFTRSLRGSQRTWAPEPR

T2: BSA-compound 1 (conjugate of the human FGF-8 partial peptide compound 1 with bovine serum albumin) (human, not fully specified; C-terminal cysteine conjugated to BSA through SMCC)
T2 construct: Coated on ELISA plates; the BSA carrier is not written as a chain
T2 peptide: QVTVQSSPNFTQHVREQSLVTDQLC

T3: compound 1 as a partial peptide of FGF-8 with the C terminal labeled with biotin (human, C terminal labeled with biotin)
T3 construct: Captured on Sensor Chip SA (35 RU) for BIAcore 2000; also called compound 1 labeled with biotin; FGF-8 peptide
T3 peptide: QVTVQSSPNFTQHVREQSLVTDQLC

B1: anti-FGF-8 neutralizing CDR-grafted antibody HV0LV3-3/CHO (antibody, V domains shown)
VH: QVQLVQSGAEVKKPGASVKVSCKASGYTFTDYYLNWVRQAPGQGLEWMGEIDPGSDSIYYNENLEGRVTITADTSTSTAYMELSSLRSEDTAVYYCARYGYSRYDVRFVYWGQGTLVTVSS
VL: DIVMTQSPLSLPVSLGEPASISCRSSQSLVHSNGRTYLEWYLQKPGQSPQVLIYKVSNRISGVPDRFSGSGSGTDFTLKISRVEAEDVGVYYCFQGSHVPYTFGQGTKVEIK
notes: HV.0 + LV.3-3; CHO/DG44 cell-derived
B2: anti-FGF-8 neutralizing CDR-grafted antibody HV0LV4-3/CHO (antibody, V domains shown)
VH: B1 VH
VL: B1 VL with Y92F
notes: HV.0 + LV.4-3; also called KM8035
B3: anti-FGF-8 neutralizing CDR-grafted antibody HV0LV6 (antibody, V domains shown)
VH: B1 VH
VL: B1 VL with I2V, Q50K, Y92F
notes: HV.0 + LV.6; YB2/0 cell-derived; also called KM8037
B4: anti-FGF-8 neutralizing CDR-grafted antibody HV6LV6 (antibody, V domains shown)
VH: B1 VH with K12A, K13R, A40R, P41S, M48I, Y95F
VL: B1 VL with I2V, Q50K, Y92F
notes: HV.6 + LV.6
B5: anti-FGF-8 neutralizing CDR-grafted antibody HV0LV0 (antibody, V domains shown)
VH: B1 VH
VL: B1 VL with S14T, L15P, V51L
notes: HV.0 + LV.0
B6: anti-FGF-8 neutralizing chimeric antibody KM3334 (antibody, V domains shown)
VH: QVQLQQSGAEVARPGASVKLSCKASGYTFTDYYLNWVKQRSGQGLEWIGEIDPGSDSIYYNENLEGRATLTADKSSSTAYMQLNSLTSEDSAVYFCARYGYSRYDVRFVYWGQGTLVTVST
VL: B1 VL with I2V, V3L, S7T, E17D, P18Q, Q50K, V88L, Y92F, Q105G, V109L
notes: expressed in YB2/0 cells; also called human chimeric antibody KM3334
B7: anti-FGF-8 neutralizing CDR-grafted antibody HV0LV3-1/CHO (antibody, V domains shown)
VH: B1 VH
VL: B1 VL with I2V, S14T, L15P, Y92F
notes: HV.0 + LV.3-1; also called KM8036
B8: anti-FGF-8 neutralizing chimeric antibody KM3034 (antibody, V domains shown)
VH: B6 VH
VL: B1 VL with I2V, V3L, S7T, E17D, P18Q, Q50K, V88L, Y92F, Q105G, V109L
notes: expressed in CHO/DG44 cells; also called human chimeric antibody KM3034
B9: anti-FGF-8 neutralizing CDR-grafted antibody HV0LV4-2/CHO (antibody, V domains shown)
VH: B1 VH
VL: B1 VL with I2V, V51L, Y92F
notes: HV.0 + LV.4-2; CHO/DG44 cell-derived
B10: anti-FGF-8 neutralizing CDR-grafted antibody HV0LV2-2/CHO (antibody, V domains shown)
VH: B1 VH
VL: B1 VL with I2V, S14T, L15P, V51L, Y92F
notes: HV.0 + LV.2-2; CHO/DG44 cell-derived
B11: anti-FGF-8 neutralizing CDR-grafted antibody HV0LV0/CHO (antibody, V domains shown)
VH: B1 VH
VL: B1 VL with S14T, L15P, V51L
notes: HV.0 + LV.0; CHO/DG44 cell-derived
B12: anti-FGF-8 neutralizing CDR-grafted antibody HV0LV6/CHO (antibody, V domains shown)
VH: B1 VH
VL: B1 VL with I2V, Q50K, Y92F
notes: HV.0 + LV.6; CHO/DG44 cell-derived; also called KM8034
B13: anti-FGF-8 neutralizing CDR-grafted antibody HV0LV3-2/CHO (antibody, V domains shown)
VH: B1 VH
VL: B1 VL with V51L, Y92F
notes: HV.0 + LV.3-2; CHO/DG44 cell-derived
B14: anti-FGF-8 neutralizing CDR-grafted antibody HV0LV4-1/CHO (antibody, V domains shown)
VH: B1 VH
VL: B1 VL with I2V, S14T, L15P, Q50K, Y92F
notes: HV.0 + LV.4-1; CHO/DG44 cell-derived
B15: anti-FGF-8 neutralizing CDR-grafted antibody HV0LV2-1/CHO (antibody, V domains shown)
VH: B1 VH
VL: B1 VL with S14T, L15P, Y92F
notes: HV.0 + LV.2-1; CHO/DG44 cell-derived

Positions count from the first letter of the chain named.

The first assay concerns the target T1, FGF-8 (manufactured by R & D). The assay can be described thus: cell-based or functional assay.
As for B1, the “FGF-8 neutralizing activity (FGF-8-dependent growth of SC-3 cells), relative to KM3034” value is ~0.5 fold of KM3034.

For B2, the “FGF-8 neutralizing activity (FGF-8-dependent growth of SC-3 cells), relative to KM3034” value is ~0.5 fold of KM3034.

The next assay deals with T2, BSA-compound 1 (conjugate of the human …). Briefly: ELISA, plate coated with BSA-compound 1. (In general: In an ELISA, binding on a coated surface is turned into a signal by an enzyme label.)
On to B3, for which the binding result was “binds”.

B4: the binding result was “binds”.

Consider B5, for which the binding result is given as “binds”.

Another assay shares this target. The assay can be described thus: ELISA, plate coated with BSA-compound 1; positive control. As for the experimental part:
The above-prepared BSA-compound 1 solution was dispensed at a 96-well ELISA plate (manufactured by Greiner) at a concentration of from 0.5 to 1.0 μg/mL in an amount of 50 μL/well, and allowed to stand overnight at 4° C. for adsorption. After washing with PBS, 1% BSA-containing PBS (hereinafter referred to as BSA-PBS) was added in an amount of 100 μL/well and reacted at room temperature for 1 hour to block a remaining active group. After washing each well with 0.05% Tween-containing PBS (hereinafter referred to as Tween-PBS), the culture supernatant or the purified antibody of the tranformants was added in an amount of 50 μL/well, and the reaction was conducted at room temperature for 1 hour. After the reaction, each well was washed with Tween-PBS, a peroxidase-labeled goat anti-human IgG (H & L) antibody solution (manufactured by American Qualex) diluted 3,000 to 6,000 times with BSA-PBS was added as a second antibody solution in an amount of 50 μL/well. The reaction was performed at room temperature for 1 hour. […] Then, absorbance was measured at 415 nm.
Consider B6, for which the binding result is “binds”.

The next assay addresses T3, compound 1 as a partial peptide of …. Briefly: BIAcore 2000, biotin-labeled compound 1 on SA chip, antibody 16.7 µg/mL; dissociation hardly observed. The procedure: (§1) In order to examine the FGF-8 binding activity of the anti-FGF-8 neutralizing CDR-grafted antibodies obtained in 5. of Reference Example 3, the FGF-8 binding activity of the various anti-FGF-8 neutralizing CDR-grafted antibodies was measured and compared through BIAcore 2000 using compound 1 as a partial peptide of FGF-8 with the C terminal labeled with biotin in the following manner. The anti-FGF-8 neutralizing chimeric antibody KM3034 derived from CHO/DG44 cells obtained in 3. (1) of Reference Example 1 was used as a positive control.
(§2) HBS-EP was used as a sample diluent and a buffer during measurement. First, Sensor Chip SA (manufactured by BIACORE) was installed, and 5 μL of compound 1 labeled with biotin which had been adjusted to 0.05 μg/mL was added at a flow rate of 5 μL/min. Then, 5 μL of a 10 mmol/L glycine-hydrochloride solution (pH 1.5) was added twice continuously to wash the tip surface. The immobilization amount of the FGF-8 peptide was 35 RU.
60 μL of each of the antibody solutions was added to an FGF-8 peptide immobilized flow cell at a flow rate of 20 μL/min, and the dissociation reaction was then monitored for 3 minutes. After the dissociation reaction, 20 μL of 10 mmol/L glycine-hydrochloride solution (pH 1.5) was added twice continuously to regenerate the chip surface. […]
For orientation: Surface plasmon resonance follows binding to a sensor surface in real time, without labels.
As to B1, the binding result is “binds”.

For B2, the binding result is on record as “binds”.

For another assay the target is unchanged. Briefly: BIAcore 2000, biotin-labeled compound 1 on SA chip (35 RU), antibody 16.7 µg/mL; dissociation hardly observed. As for the experimental part: as §1, §2
60 μL of each of the antibody solutions was added to an FGF-8 peptide immobilized flow cell at a flow rate of 20 μL/min, and the dissociation reaction was then monitored for 3 minutes. After the dissociation reaction, 20 μL of 10 mmol/L glycine-hydrochloride solution (pH 1.5) was added twice continuously to regenerate the chip surface. This cycle was performed on the antibody solution at various concentrations (from 50 to 1.85 μg/mL) to obtain sensor grams at various concentrations. The sensor grams of the respective antibodies were converted to sensor grams of specific reactions by deduceing a sensor gram obtained using the chimeric antibody KM871 to GD3 as a negative control.
On to B7, for which the binding result was “binds”.

In the case of B8, the binding result is reported as “binds”.

Turning to B9, the binding result is “binds”.

Consider B10, for which the binding result was “binds”.

With B11, the binding result is “binds”.

Turning to B12, the binding result is given as “binds”.

Consider B13, for which the binding result is “binds”.

In the case of B14, the binding result is “binds”.

On to B15, for which the binding result was “binds”.

These data come from patent US20050175608A1 (Kyowa Kirin, published 2005).
